Measurements published in patent publication US20180355050A1 (Ablynx, published 2018).

Columns and labels:
[1] = biological target: T1, human CD40L expressed on CHO cells (human, UniProt P29965 1-261); test: cell-based or functional assay
T1 sequence: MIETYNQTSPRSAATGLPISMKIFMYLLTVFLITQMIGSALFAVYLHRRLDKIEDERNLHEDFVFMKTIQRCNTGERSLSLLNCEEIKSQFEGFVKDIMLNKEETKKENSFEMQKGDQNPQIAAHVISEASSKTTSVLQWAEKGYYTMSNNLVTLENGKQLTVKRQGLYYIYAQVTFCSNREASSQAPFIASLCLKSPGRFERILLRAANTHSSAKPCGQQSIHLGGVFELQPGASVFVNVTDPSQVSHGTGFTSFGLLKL

[2] = biological target: T2, recombinant human CD40L (human, UniProt P29965 108-261, limits assumed); test: FACS ligand competition, biotinylated human CD40L on cyno CD40 HEK cells
T2 construct: Bought soluble recombinant protein (R&D, HEK, 6420-CL/CF); also called hCD40L; human CD40L (HEK, R&D)
T2 sequence: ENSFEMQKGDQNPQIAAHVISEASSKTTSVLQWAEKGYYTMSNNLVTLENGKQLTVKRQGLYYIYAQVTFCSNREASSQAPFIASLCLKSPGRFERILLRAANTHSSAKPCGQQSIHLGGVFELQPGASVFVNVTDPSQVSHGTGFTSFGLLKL
Protocol: Cross-reactivity to cynomolgus CD40L (UniProt accession number: G7PG38) and rhesus CD40L (UniProt accession number: G7N4M5) was tested in a ligand competition assay. […] 2×10⁵ cells (transiently transfected HEK cells) were incubated with dilution series of the purified Nanobodies in FACS buffer for 30 minutes at 4° C. Cells were then washed 3× and finally resuspended in FACS buffer containing Streptavidin-PE (BD Pharmingen, #554061). This mixture was incubated for 30 minutes at 4° C. Cells were further handled as set out above.

[3] = biological target: T1, human CD40L expressed on CHO cells; test: cell-based or functional assay; remark: listed apart in the source
[4] = biological target: T2, recombinant human CD40L; test: FACS ligand competition, biotinylated human CD40L on human CD40 HEK cells; * suboptimal curve fit
[5] = biological target: T2, recombinant human CD40L; test: FACS ligand competition, biotinylated human CD40L on human CD40 HEK cells
[6] = biological target: T3, recombinant mouse CD40L (mouse, UniProt P27548 112-260, limits assumed); test: SPR (ProteOn), immobilised recombinant mouse CD40L 3000-4000 RU; member of the lead panel
T3 construct: also called mouse CD40L (R&D NSO)
T3 sequence (looked up): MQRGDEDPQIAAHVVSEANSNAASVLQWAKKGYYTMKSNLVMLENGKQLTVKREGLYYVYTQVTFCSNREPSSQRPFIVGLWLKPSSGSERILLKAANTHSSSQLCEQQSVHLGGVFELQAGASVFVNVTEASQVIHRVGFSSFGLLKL
Protocol: To assess binding to mouse CD40L (UniProt accession number: P27548), ProteOn GLC Sensor Chips were coated with 3000-4000 RU of recombinant mouse CD40L (R&D NSO) in 10 mM acetate buffer pH5.5. Purified monovalent anti-CD40L Nanobodies in ProteOn running buffer: PBS/Tween (phosphate buffered saline, pH 7.4 with 0.005% Tween 20) were flown over the sensor chips at 100 nM. Processed curves were used for off-rate analysis based on the Langmuir dissociation model.

[7] = biological target: HVEM-L (TNF14) (human, UniProt O43557 74-240, limits assumed); test: competition ELISA on coated human CD40L, fixed Nanobody, dilution series of competitor
HVEM-L (TNF14), sequence (O43557 74-240 limits assumed): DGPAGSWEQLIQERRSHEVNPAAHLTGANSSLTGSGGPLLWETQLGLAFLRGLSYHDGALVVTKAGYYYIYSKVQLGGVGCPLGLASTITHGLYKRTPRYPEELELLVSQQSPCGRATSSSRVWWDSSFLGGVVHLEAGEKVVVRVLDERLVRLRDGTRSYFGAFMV
Source text: (§1) The Basic Local Alignment Search Tool (BLAST) was used to identify the closest related protein in the human protein database. […] A fixed concentration of Nanobody was used together with a dilution series of competitor (TNFα, HVEM-L (TNF14) and hRANKL (TN F11); CD40L was used as positive control), starting at a 100-fold excess. The Nano bodies were detected with anti-FLAG-HRP (Sigma (A8592)).

[8] = biological target: T4, hRANKL (TNF11) (human, UniProt O14788 140-317, limits assumed); test: as above
T4 sequence (looked up): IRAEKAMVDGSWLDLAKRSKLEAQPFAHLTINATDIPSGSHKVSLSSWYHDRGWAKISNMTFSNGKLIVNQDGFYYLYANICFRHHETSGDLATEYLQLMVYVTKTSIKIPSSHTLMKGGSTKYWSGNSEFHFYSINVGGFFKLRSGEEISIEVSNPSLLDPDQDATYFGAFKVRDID
Source text: as §1

[9] = biological target: human TNFα (human, UniProt P01375 77-233); test: as above
human TNFα, sequence (P01375 77-233 limits assumed): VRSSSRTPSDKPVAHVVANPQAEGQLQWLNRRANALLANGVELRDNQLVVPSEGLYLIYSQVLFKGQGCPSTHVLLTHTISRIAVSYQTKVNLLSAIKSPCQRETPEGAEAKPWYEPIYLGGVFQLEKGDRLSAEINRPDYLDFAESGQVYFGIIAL
Source text: as §1

[10] = biological target: T5, rat CD40L on transiently transfected HEK cells (rat, UniProt Q9Z2V2 1-260); test: FACS on HEK cells transiently transfected with rat CD40L
T5 construct: whole, on cells
T5 sequence (looked up): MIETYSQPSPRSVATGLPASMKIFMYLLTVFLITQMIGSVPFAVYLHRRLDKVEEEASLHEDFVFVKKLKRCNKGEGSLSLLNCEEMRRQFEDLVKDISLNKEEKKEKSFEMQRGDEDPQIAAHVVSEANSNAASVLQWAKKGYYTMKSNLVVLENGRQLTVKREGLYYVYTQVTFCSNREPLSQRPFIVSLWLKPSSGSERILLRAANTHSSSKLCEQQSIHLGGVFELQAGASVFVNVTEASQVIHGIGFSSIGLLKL
Protocol: Cross-reactivity to rat CD40L (UniProt accession numbers: Q9Z2V2 and Q9R254 (secondary)) was tested in FACS. Purified Nanobodies were analyzed on FACS for binding to rat CD40L. 2×10⁵ cells (transiently transfected rat CD40L HEK cells) were incubated with the purified Nanobodies in FACS buffer for 30 minutes at 4° C. Cells were washed 3×, re-suspended and incubated for 30 minutes at 4° C. Cells were washed again 3× and dead cells were stained with TOPRO3 (Molecular probes, T3605). Samples were analyzed on a FACSarray™ (BD Biosciences).

[11] = biological target: T2, recombinant human CD40L; test: FACS ligand competition, biotinylated human CD40L on rhesus CD40 HEK cells

B1: C0100029C10 (VHH)
VHH: EVQLVESGGGLVQPGGSLRLSCAASGFTLDYYALGWFRQAPGKEREGVSCISSTESSDGSTYYADSVKGRFTISRDSAKNTVYLQMNSLKPEDTAVYYCATDQTLFGVCRGIATPDPGFWGQGTLVTVSS
notes: Monovalent Nanobody; tag of the monovalent form not spelled out; also called C01000029C10
Question: Which “Average IC50 (M), B-cell proliferation assay” value [1] does the source give for B1 here?
Answer: 1.26e-09 M

Question: And the “% block (maximum observed effect)” value [2]?
Answer: 81%

Question: What about the IC50 [2] of the same binder?
Answer: 8.07 nM

Question: What about the “IC50 (M), B-cell proliferation assay, +HSA” value [3] of the same binder?
Answer: 1.06e-09 M

Question: And the IC50 [4]?
Answer: 0.142 nM

Question: And the “% block (maximum observed effect)” value [5]?
Answer: 98%

Question: Does B1 bind [6]?
Answer: no binding (tested: 100 nM)

Question: Does B1 bind [7]?
Answer: no binding (tested: competitor from a 100-fold excess)

Question: Does B1 bind [8]?
Answer: no binding (tested: competitor from a 100-fold excess)

Question: Does B1 bind [9]?
Answer: no binding (tested: competitor from a 100-fold excess)

Question: Does B1 bind [10]?
Answer: no binding

Question: And the “% block (maximum observed effect)” value [11]?
Answer: 87%

Question: And the IC50 [11]?
Answer: 12.4 nM
